Measurements taken from doi:10.1101/2022.02.02.478753.

Biological target: holoTvFDPF3, highly active Class F flavodiiron protein 3 from Trichomonas vaginalis (TVAG_121610) (Trichomonas vaginalis)
Test: cryo-EM structure

- stoichiometry N: 2
Substance: holoTvFDPF3, highly active Class F flavodiiron protein 3 from Trichomonas vaginalis (TVAG_121610) (enzyme)
